According to publication PMC10873205:

Biological target: UBR4_(xtal) (UBR4 residues 4,730–5,183) (human) (UniProt Q5T4S7)
Assay: ITC; UBR4 construct in the cell (74 μM), UBE2A in the syringe at tenfold higher concentration; 25 °C; 0.4 µl then 13 injections of 3 µl; UBE2A into buffer subtracted; single site binding model

Chain of UBE2A (P49459 whole entry): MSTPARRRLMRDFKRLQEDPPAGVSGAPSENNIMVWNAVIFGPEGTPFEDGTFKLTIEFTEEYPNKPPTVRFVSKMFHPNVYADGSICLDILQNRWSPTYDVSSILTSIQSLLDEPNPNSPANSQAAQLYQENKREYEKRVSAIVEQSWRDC
Chain of UBR4_(xtal) (UBR4 residues 4,730–5,183) (human) (Q5T4S7 4730-5183): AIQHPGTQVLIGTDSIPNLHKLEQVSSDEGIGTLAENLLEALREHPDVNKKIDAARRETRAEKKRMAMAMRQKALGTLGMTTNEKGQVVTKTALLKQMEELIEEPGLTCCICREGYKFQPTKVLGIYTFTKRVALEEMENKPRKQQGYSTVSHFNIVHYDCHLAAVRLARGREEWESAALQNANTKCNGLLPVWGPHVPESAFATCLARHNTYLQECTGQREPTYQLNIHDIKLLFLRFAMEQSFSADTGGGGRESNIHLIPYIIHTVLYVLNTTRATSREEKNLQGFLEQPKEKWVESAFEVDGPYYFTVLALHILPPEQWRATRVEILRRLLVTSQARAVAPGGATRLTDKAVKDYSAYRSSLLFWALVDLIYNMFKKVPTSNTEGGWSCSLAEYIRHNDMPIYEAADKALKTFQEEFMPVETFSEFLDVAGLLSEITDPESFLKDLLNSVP

dH: -13.9 kcal/mol
Substance: UBE2A (from UniProt P49459 1-152) (enzyme)
